Reference: the supplement of paper PMC9732359
± gives the uncertainty stated by the source.

Assay: protein stability index of a GFP-peptide fusion (yeast GPS) (PSI 1-4); higher = more stable; sorted into four equal gates, so the index is relative within each strain
Method in brief: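 The protein stability index combines read frequencies across sorting gates, each weighted by its gate number and then summed. To obtain those frequencies, a pooled yeast library of GFP fusions to tiled 17-residue yeast protein peptides, on a plasmid also expressing Cherry, was grown to mid-log phase in leucine-free medium. The cells were sorted into four equal gates by GFP/Cherry ratio before plasmid amplification by PCR and Illumina sequencing.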

Sequence	protein stability index (doa10∆)	protein stability index (pdr5∆)	protein stability index (san1∆)	protein stability index (ubr1∆)
GGVMANRKIARMRHSKR [YOR098C/NUP1]	3.31 ± 0.13	3.6 ± 0.085	3.34 ± 0.09	3.32 ± 0.1
HELSSSHTSLVKIGKFI [SRB8]	1.8 ± 0.042	2.61 ± 0.033	1.84 ± 0.079	1.63 ± 0.052
DPKLEKCLNYRNVNWIE [ITC1]	2.96 ± 0.069	2.88 ± 0.09	2.96 ± 0.056	2.95 ± 0.046
FENVKLLAEYDNIYRNL [MED4]	2.43 ± 0.052	2.64 ± 0.045	2.62 ± 0.071	2.31 ± 0.028
TTTSFTTSEATANDRQI [RPN4]	2.95 ± 0.051	3.13 ± 0.055	2.55 ± 0.063	3.25 ± 0.042
NSGVGSAKGPEIIPLQD [MED6]	3.35 ± 0.16	3.21 ± 0.088	3.16 ± 0.071	3.23 ± 0.064
LSTLEPSTSITLAERQQ [RPN9]	2.9 ± 0.055	2.91 ± 0.058	2.58 ± 0.062	2.86 ± 0.036
DDLKKDHIAIDWEDEEK [DSN1]	2.73 ± 0.083	3.06 ± 0.072	3.07 ± 0.065	2.82 ± 0.063
DDFQNFFDPKPFDQNLD [SWI1]	2.53 ± 0.061	1.95 ± 0.055	2.13 ± 0.1	2.12 ± 0.052
LNDSNVKSFKPHLLKQG [RRP42]	2.63 ± 0.083	3.25 ± 0.18	2.58 ± 0.24	2.54 ± 0.13
NNRISNANEISANTNNT [SWP82]	2.14 ± 0.05	2.25 ± 0.049	2.54 ± 0.066	2.66 ± 0.048
VRDPWSIDFRTYRCSIK [SRB2]	2.35 ± 0.11	2.41 ± 0.12	1.47 ± 0.13	2.31 ± 0.083
LKHTDYWYEQDSAKEWP [RPB3]	3.18 ± 0.15	3.31 ± 0.13	2.36 ± 0.21	–
QDDIDEMVENSSENNQI [SRP68]	3.35 ± 0.1	3.25 ± 0.11	2.97 ± 0.14	3.35 ± 0.088
RSTMMKFLKIASLKHDN [RPN3]	2.18 ± 0.067	2.43 ± 0.072	2.86 ± 0.089	3.01 ± 0.057
QIVKYARKGLTPSQIGV [RPS13]	3.12 ± 0.068	2.97 ± 0.086	2.47 ± 0.082	2.83 ± 0.086
LESVGIEIEDEKVSSVL [RPP2A]	3.04 ± 0.075	2.67 ± 0.12	2.77 ± 0.12	2.78 ± 0.094
LLSDVVSTSSGAAANNN [YJL041W/NSP1]	3.24 ± 0.077	3.06 ± 0.11	3.32 ± 0.047	3.52 ± 0.11
LEVVQYIEDGRNPDIYT [NUT2]	3.14 ± 0.059	3.25 ± 0.049	3.15 ± 0.042	3.27 ± 0.039
RRLHKVLRPFLLRRLKK [SNF2]	2.09 ± 0.078	2.53 ± 0.1	1.89 ± 0.12	2.53 ± 0.07
SIVNICDIQEEQVDITA [PUP1]	2.83 ± 0.15	2.91 ± 0.16	3.31 ± 0.12	2.74 ± 0.11
VTNSMRQTLAPYAVLSQ [YJR042W/NUP85]	2.33 ± 0.065	2.83 ± 0.054	2.53 ± 0.051	2.62 ± 0.048
ATANATANATAELNLPT [SNF11]	3.096 ± 0.028	3.265 ± 0.029	3.212 ± 0.032	3.282 ± 0.02
FQDVYDLTGSEPIKEII [FAS1]	2.78 ± 0.25	3.02 ± 0.081	–	3.22 ± 0.1
SKVREEVGDVCINELDN [RPO31]	3.15 ± 0.095	2.32 ± 0.06	2.84 ± 0.075	3.18 ± 0.065
RAVGGEVGASAALAPKI [RPL12A]	3.37 ± 0.14	3.21 ± 0.17	1.86 ± 0.18	3.2 ± 0.1
KSESPSEVLVDTLDSKS [ISW2]	2.98 ± 0.067	3.11 ± 0.068	2.96 ± 0.075	3.24 ± 0.056

Sequence	protein stability index (doa10∆)	protein stability index (pdr5∆)	protein stability index (san1∆)	protein stability index (ubr1∆)
SCGYPAAKTRSYNWGAK [RPL37A]	2.21 ± 0.29	3.34 ± 0.12	3.1 ± 0.085	3.31 ± 0.12
LEGKGSLEEIIAEGQKK [RPP2B]	2.5 ± 0.12	2.17 ± 0.072	3.1 ± 0.076	2.72 ± 0.046
LKLLKENIIQMEMIENR [FAS1]	1.87 ± 0.065	2.27 ± 0.094	1.32 ± 0.12	1.93 ± 0.074
AKLPGHKSLIRSISWAP [YGL100W/SEH1]	2.74 ± 0.07	2.3 ± 0.058	2.2 ± 0.11	2.54 ± 0.055
MNLKKELQGYIELSVPD [SRB5]	2.6 ± 0.21	3.26 ± 0.14	3.15 ± 0.075	2.83 ± 0.1
AHDYNNDQDMFTIVSLV [YML103C/NUP188]	2.76 ± 0.21	3.11 ± 0.16	3.23 ± 0.12	2.95 ± 0.13
QTQEFFLSSFDDVLQTI [YJL039C/NUP192]	2.65 ± 0.046	2.27 ± 0.048	2.32 ± 0.047	2.51 ± 0.034
DKLPQFVDENTFQRVCQ [RPN1]	3.04 ± 0.082	3.28 ± 0.12	3.15 ± 0.062	3.3 ± 0.078
SGGLFGNQQQQLQQQPQ [YGL172W/NUP49]	2.88 ± 0.13	2.61 ± 0.15	2.89 ± 0.093	3 ± 0.12
IVKNAEQHNLVKKGPVR [RPS20]	2.84 ± 0.058	3.13 ± 0.066	2.9 ± 0.072	2.95 ± 0.078
VLIFFQMTQIMDIMEDF [SNF2]	1.67 ± 0.083	1.52 ± 0.085	2.18 ± 0.13	2.42 ± 0.091
VRCKDCGHRILLKARTK [RPC10]	2.55 ± 0.12	2.64 ± 0.11	2.56 ± 0.1	2.87 ± 0.072
DHRKRKKSKIQLLDIAE [LIN1]	–	2.8 ± 0.23	3.19 ± 0.17	3.32 ± 0.18
TRGRNIIMHKDVEIGRM [RET1]	–	3.1 ± 0.16	2.98 ± 0.076	2.74 ± 0.15
KEEFSSDESIERLMTWK [RRI2]	2.49 ± 0.08	2.77 ± 0.076	2.55 ± 0.11	2.43 ± 0.17
FIRDELDENKWYKFNDD [UBP6]	1.86 ± 0.063	2.15 ± 0.043	1.94 ± 0.096	1.97 ± 0.062
QIANDPSKKRRRDFGAP [SMD1]	2.81 ± 0.12	3.18 ± 0.1	2.86 ± 0.092	3.25 ± 0.073
ALKRSYGIFGEGVEYSF [POP8]	2.45 ± 0.092	2.71 ± 0.052	2.46 ± 0.097	2.86 ± 0.051
SGAYSYPDFRHYGLAVD [DIS3]	1.82 ± 0.047	2.56 ± 0.056	2.42 ± 0.089	2.67 ± 0.043
ITRSFKEPRLVIVTDPR [RPS0A]	1.56 ± 0.2	1.89 ± 0.13	1.98 ± 0.14	1.28 ± 0.13
IFNDILAHVDQIVDIRN [YJL039C/NUP192]	2.83 ± 0.1	2.64 ± 0.18	2.97 ± 0.082	2.9 ± 0.076
LLNAADRDALSGWGAVV [PUP3]	3.17 ± 0.12	3.2 ± 0.099	3.03 ± 0.081	3.09 ± 0.099
SASRAKNMPVIYNNIVS [RGR1]	2.42 ± 0.064	2.26 ± 0.064	2.31 ± 0.053	2.34 ± 0.047
RNPARLMETLRTLRRKG [RPB2]	2.28 ± 0.077	3.06 ± 0.086	2.47 ± 0.089	2.87 ± 0.13
LQNNINNSNNNNIIRIQ [SNF11]	2.94 ± 0.089	2.57 ± 0.13	2.87 ± 0.069	3.32 ± 0.089
MNAGGRNVTIQLENADT [RPN2]	–	2.44 ± 0.18	1.62 ± 0.29	–
